Experimental data from patent US20220348670A1 (BIODURO BEIJING, published 2022).

Experiments:
[1] = molecular target: T1, full-length human OX40 protein (human, UniProt P43489 29-277); experiment: cell-based or functional assay
T1 sequence (looked up): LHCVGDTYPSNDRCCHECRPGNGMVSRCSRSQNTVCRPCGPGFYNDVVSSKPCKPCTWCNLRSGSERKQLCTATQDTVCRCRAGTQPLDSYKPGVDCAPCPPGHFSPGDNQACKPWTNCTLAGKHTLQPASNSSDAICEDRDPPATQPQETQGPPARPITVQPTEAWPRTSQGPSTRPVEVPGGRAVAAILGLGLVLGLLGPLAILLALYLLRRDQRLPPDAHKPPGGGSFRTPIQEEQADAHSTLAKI

[2] = molecular target: T1, full-length human OX40 protein; experiment: FACS on L929-hOX40 cells, PE anti-human FC secondary antibody
Description: The L929-hOX40 stable cell line constructed in Example 2.1 was cultured and expanded to 90% confluence in a cell culture flask. After washing with PBS, the cell culture was digested with 0.25% Trypsin (purchased from Thermofisher) to form a single-cell suspension, neutralized with 10% FBS-containing medium, and counted. After centrifugation at 1000 rpm for 5 min, the cells were resuspended to 2×10⁶ cells/mL with FACS buffer (PBS+1% FBS), added to a 96-well FACS culture plate at 200 μL per well, centrifuged at 1000 rpm for 5 min and the supernatant was removed. A series of concentration gradients of anti-human OX40 antibodies to be tested or isotype control were added at 200 μL per well, and incubated at 4° C. for 1 hour in the dark. After centrifugation at 1000 rpm for 5 min, 200 μL of PE fluorescently labeled anti-human FC secondary antibody (purchased from Invitrogen) was added to each well, and incubated at 4° C. for 1 hour in the dark. After washing twice with FACS buffer, PBS buffer containing 1% paraformaldehyde at 200 μL per well was added to resuspend the cells, and a FACS instrument (BD Accuri C6) was used for detection and analysis.

[3] = molecular target: T1, full-length human OX40 protein; experiment: FACS on Jurkat-hOX40 cells, PE anti-human FC secondary antibody
Description: Jurkat-hOX40 stable cell lines constructed in Example 2.1 were expanded and cultured in a cell culture flask, and cells in the logarithmic growth phase were counted. The cells were centrifuged at 1000 rpm for 5 min and then resuspended in FACS buffer (PBS+1% FBS) to 2×10⁶ cells/mL, and added to a 96-well FACS culture plate at 200 μL per well. After centrifugation at 1000 rpm for 5 min, the supernatant was removed, and a series of concentration gradients of purified anti-human OX40 antibodies to be tested or isotype control were added at 200 μL per well, incubated at 4° C. for 1 hour in the dark, centrifuged at 1000 rpm for 5 min, and then added with 200 μL of PE fluorescently labeled anti-human FC secondary antibody (purchased from Invitrogen) per well, and incubated at 4° C. for 1 hour in the dark. After washing twice with FACS buffer, PBS buffer containing 1% paraformaldehyde at 200 μL per well was added to resuspend cells, and a FACS instrument (BD Accuri C6) was used for detection and analysis.

OX40-mFc protein = molecular target: T2, OX40-mFc protein (UniProt P43489 29-214); experiment: phage ELISA, monoclonal phage supernatant on OX40-mFc
T2 sequence (looked up): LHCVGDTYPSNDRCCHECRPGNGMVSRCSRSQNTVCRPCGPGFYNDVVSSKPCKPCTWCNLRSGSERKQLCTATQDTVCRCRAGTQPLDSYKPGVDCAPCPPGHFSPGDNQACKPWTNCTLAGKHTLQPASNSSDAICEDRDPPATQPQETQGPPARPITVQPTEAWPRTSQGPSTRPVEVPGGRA

Milk = experiment: phage ELISA, monoclonal phage supernatant on milk (background control)
murine full-length OX40 = molecular target: T3, murine full-length OX40 (murine, UniProt P47741 20-272); experiment: FACS on transiently transfected CHO-S cells
T3 construct: whole, on cells; also called CHOS-OX40 (mus); PCMV3-OX40 (Mus)
T3 sequence (looked up): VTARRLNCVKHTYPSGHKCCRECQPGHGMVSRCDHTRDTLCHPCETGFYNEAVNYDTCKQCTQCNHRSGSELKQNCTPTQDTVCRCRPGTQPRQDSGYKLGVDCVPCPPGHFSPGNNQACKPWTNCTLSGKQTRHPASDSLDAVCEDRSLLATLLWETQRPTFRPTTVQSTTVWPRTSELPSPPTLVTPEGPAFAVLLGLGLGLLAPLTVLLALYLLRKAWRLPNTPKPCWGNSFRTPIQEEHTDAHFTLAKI
Description: (§1) Transient transfection of OX40 expression vector: CHO-S cells were revived, and passaged for at least 2 times, and then seeded into a 6-well plate at a density of 1×10⁶ cells/well. At the following day, the above expression vectors expressing different domains of OX40 were transfected into CHO-S cells by PEI transfection method.

OX40 (CRD3-4human) = molecular target: T4, OX40 (CRD3-4human) (human, UniProt P43489 108-277, limits assumed); experiment: FACS on transiently transfected CHO-S cells
T4 construct: domain: CRD3-4; Named only in the results sentence; its construction is not described; also called CHOS-OX40 (CRD3-4human)
T4 sequence (looked up): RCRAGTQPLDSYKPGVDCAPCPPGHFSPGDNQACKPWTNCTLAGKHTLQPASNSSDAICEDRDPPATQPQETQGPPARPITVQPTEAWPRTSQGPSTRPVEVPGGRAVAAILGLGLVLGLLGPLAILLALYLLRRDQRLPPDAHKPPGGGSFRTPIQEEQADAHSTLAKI
Description: as §1

Molecule: Isotype control (human IgG) (antibody)
- Maximum value (RLU), NF-kB reporter gene assay [1]: 2650 RLU
- Maximum mean fluorescence intensity value (MFI) [2]: 8960 MFI
- Maximum mean fluorescence intensity value (MFI) [3]: 999 MFI

B1: OX40 BC3-7 (phage-displayed VHH clone) (VHH)
VHH: EVQLVESGGGLVQPGGSLRLSCAASGSIYDFDVMGWFRQAPGKGRELVAAINSFGDITYYPDSVEGRFTISRDNAKRMVYLQMNSLRAEDTAVYYCAADWHVLIQQVLGYWGQGTQVTVSS
notes: Tested as phage in monoclonal culture supernatant (M13 display), not as purified protein; the phage coat fusion is not described
- ELISA Results (OD450) (OX40-mFc protein): 3.12 OD450
- ELISA Results (OD450) (Milk): 0.045 OD450

B2: anti-human OX40 antibody BC3-7 (OX40 VHH-Fc) (Fc fusion)
chain: EVQLVESGGGLVQPGGSLRLSCAASGSIYDFDVMGWFRQAPGKGRELVAAINSFGDITYYPDSVEGRFTISRDNAKRMVYLQMNSLRAEDTAVYYCAADWHVLIQQVLGYWGQGTQVTVSS
notes: VHH fused through a linker to human IgG Fc, expressed in ExpiCHO, purified on Protein A; also called OX40 BC3-7; OX40 VHH-Fc antibody; not shown: linker encoded by the CMV-12GS-FC vector; human IgG FC fragment (hFC)
- EC50, NF-kB reporter gene assay [1]: 0.13 nM
- Maximum value (RLU), NF-kB reporter gene assay [1]: 48400 RLU
- binding result (murine full-length OX40): no binding
- binding result (OX40 (CRD3-4human)): no binding
- EC50 [2]: 0.693 nM
- Maximum mean fluorescence intensity value (MFI) [2]: 327000 MFI
- EC50 [3]: 0.548 nM
- Maximum mean fluorescence intensity value (MFI) [3]: 24100 MFI

B3: OX40 BC3-6 (phage-displayed VHH clone) (VHH)
VHH: EVQLVESGGGLVQPGGSLRLSCAASGSILDSNLMGWFRQAPGKGRELVASINSYDDNTYYPDSVEGRFTISRDNAKRMVYLQMNSLRAEDTAVYYCAAQVFVGWPYTDQMHDYWGQGTQVTVSS
notes: as for B1
- ELISA Results (OD450) (OX40-mFc protein): 3.21 OD450
- ELISA Results (OD450) (Milk): 0.045 OD450

B4: anti-human OX40 antibody BC3-6 (OX40 VHH-Fc) (Fc fusion)
chain: EVQLVESGGGLVQPGGSLRLSCAASGSILDSNLMGWFRQAPGKGRELVASINSYDDNTYYPDSVEGRFTISRDNAKRMVYLQMNSLRAEDTAVYYCAAQVFVGWPYTDQMHDYWGQGTQVTVSS
notes: VHH fused through a linker to human IgG Fc, expressed in ExpiCHO, purified on Protein A; also called OX40 BC3-6; OX40 VHH-Fc antibody; not shown: linker encoded by the CMV-12GS-FC vector; human IgG FC fragment (hFC)
- EC50, NF-kB reporter gene assay [1]: 0.162 nM
- Maximum value (RLU), NF-kB reporter gene assay [1]: 50300 RLU
- binding result (murine full-length OX40): no binding
- binding result (OX40 (CRD3-4human)): no binding
- EC50 [2]: 0.545 nM
- Maximum mean fluorescence intensity value (MFI) [2]: 198000 MFI
- EC50 [3]: 0.683 nM
- Maximum mean fluorescence intensity value (MFI) [3]: 12800 MFI

B5: OX40 BC3-1 (phage-displayed VHH clone) (VHH)
VHH: EVQLVESGGGLVQPGGSLRLSCAASGSIFSVYVMGWFRQAPGKGRELVAAITPFDDNTYYPDSVEGRFTISRDNAKRMVYLQMNSLRAEDTAVYYCAADWEWPEYNYWGQGTQVTVSS
notes: as for B1
- ELISA Results (OD450) (OX40-mFc protein): 3.45 OD450
- ELISA Results (OD450) (Milk): 0.047 OD450

B6: anti-human OX40 antibody BC3-1 (OX40 VHH-Fc) (Fc fusion)
chain: EVQLVESGGGLVQPGGSLRLSCAASGSIFSVYVMGWFRQAPGKGRELVAAITPFDDNTYYPDSVEGRFTISRDNAKRMVYLQMNSLRAEDTAVYYCAADWEWPEYNYWGQGTQVTVSS
notes: VHH fused through a linker to human IgG Fc, expressed in ExpiCHO, purified on Protein A; also called OX40 BC3-1; OX40 VHH-Fc antibody; not shown: linker encoded by the CMV-12GS-FC vector; human IgG FC fragment (hFC)
- EC50, NF-kB reporter gene assay [1]: 0.209 nM
- Maximum value (RLU), NF-kB reporter gene assay [1]: 53400 RLU
- binding result (murine full-length OX40): no binding
- binding result (OX40 (CRD3-4human)): no binding
- EC50 [2]: 0.488 nM
- Maximum mean fluorescence intensity value (MFI) [2]: 285000 MFI
- EC50 [3]: 0.257 nM
- Maximum mean fluorescence intensity value (MFI) [3]: 17500 MFI

B7: OX40 BC3-4 (phage-displayed VHH clone) (VHH)
VHH: EVQLVESGGGLVQPGGSLRLSCAASGFIFSAYFMGWFRQAPGKGRELVAAINSNDDITYYPDSVEGRFTISRDNAKRMVYLQMNSLRAEDTAVYYCAAWLGAENYGYWGQGTQVTVSS
notes: as for B1
- ELISA Results (OD450) (OX40-mFc protein): 3.31 OD450
- ELISA Results (OD450) (Milk): 0.045 OD450

B8: anti-human OX40 antibody BC3-4 (OX40 VHH-Fc) (Fc fusion)
chain: EVQLVESGGGLVQPGGSLRLSCAASGFIFSAYFMGWFRQAPGKGRELVAAINSNDDITYYPDSVEGRFTISRDNAKRMVYLQMNSLRAEDTAVYYCAAWLGAENYGYWGQGTQVTVSS
notes: VHH fused through a linker to human IgG Fc, expressed in ExpiCHO, purified on Protein A; also called OX40 BC3-4; OX40 VHH-Fc antibody; not shown: linker encoded by the CMV-12GS-FC vector; human IgG FC fragment (hFC)
- EC50, NF-kB reporter gene assay [1]: 0.175 nM
- Maximum value (RLU), NF-kB reporter gene assay [1]: 55700 RLU
- binding result (murine full-length OX40): no binding
- binding result (OX40 (CRD3-4human)): no binding
- EC50 [2]: 0.862 nM
- Maximum mean fluorescence intensity value (MFI) [2]: 308000 MFI
- EC50 [3]: 0.395 nM
- Maximum mean fluorescence intensity value (MFI) [3]: 24000 MFI
